In IntAct's records for PubMed 20553494:

B1: Homeobox protein Meis2 (Homo sapiens), O14770-4 (parent)
chain: MAQRYDELPHYGGMDGVGVPASMYGDPHAPRPIPPVHHLNHGPPLHATQHYGAHAPHPNVMPASMGSAVNDALKRDKDAIYGHPLFPLLALVFEKCELATCTPREPGVAGGDVCSSDSFNEDIAVFAKQVRAEKPLFSSNPELDNLMIQAIQVLRFHLLELEKVHELCDNFCHRYISCLKGKMPIDLVIDERDGSSKSDHEELSGSSTNLADHNPSSWRDHDDATSTHSAGTPGPSSGGHASQSGDNSSEQGDGLDNSVASPGTGDDDDPDKDKKRQKKRGIFPKVATNIMRAWLFQHLTHPYPSEEQKKQLAQDTGLTILQVNNWFINARRRIVQPMIDQSNRAVSQGAAYSPEGQPMGSFVLDGQQHMGIRPAGLQSMPGDYVSQGGPMGMSMAQPSYTPPQMTPHPTQLRHGPPMHSYLPSHPHHPAMMMHGGPPTHPGMTMSAQSPTMLNSVDPNVGGQVMDIHAQ
partner: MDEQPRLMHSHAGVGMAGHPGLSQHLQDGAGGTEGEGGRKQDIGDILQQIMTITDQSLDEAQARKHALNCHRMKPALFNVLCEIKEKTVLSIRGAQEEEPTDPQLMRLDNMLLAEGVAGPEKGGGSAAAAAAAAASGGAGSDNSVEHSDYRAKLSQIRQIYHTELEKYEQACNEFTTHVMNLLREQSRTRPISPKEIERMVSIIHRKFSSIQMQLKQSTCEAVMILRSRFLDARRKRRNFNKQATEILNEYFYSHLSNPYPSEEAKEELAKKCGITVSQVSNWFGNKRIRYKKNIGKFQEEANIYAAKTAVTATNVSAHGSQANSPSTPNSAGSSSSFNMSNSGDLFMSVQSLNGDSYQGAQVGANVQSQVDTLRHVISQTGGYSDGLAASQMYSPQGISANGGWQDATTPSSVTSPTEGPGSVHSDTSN

Variants of: B1
Settings: with pbx1_human PBX1, P40424

Effect of a mutation on the interaction, decreasing interaction:
MAQRYDELPHYGGMDGVGVPASMYGDPHAPRPIPPVHHLNHGPPLHATQHYGAHAPHPNVMPASMGSAVNDALKRDKDAIYGHPLFPLLALVFEKCTLATCTPREPGVAGGDVCSSDSFNEDIAVFAKQVRAEKPLFSSNPELDNLMIQAIQVLRFHLLELEKVHELCDNFCHRYISCLKGKMPIDLVIDERDGSSKSDHEELSGSSTNLADHNPSSWRDHDDATSTHSAGTPGPSSGGHASQSGDNSSEQGDGLDNSVASPGTGDDDDPDKDKKRQKKRGIFPKVATNIMRAWLFQHLTHPYPSEEQKKQLAQDTGLTILQVNNWFINARRRIVQPMIDQSNRAVSQGAAYSPEGQPMGSFVLDGQQHMGIRPAGLQSMPGDYVSQGGPMGMSMAQPSYTPPQMTPHPTQLRHGPPMHSYLPSHPHHPAMMMHGGPPTHPGMTMSAQSPTMLNSVDPNVGGQVMDIHAQ [E97T]
MAQRYDELPHYGGMDGVGVPASMYGDPHAPRPIPPVHHLNHGPPLHATQHYGAHAPHPNVMPASMGSAVNDALKRDKDAIYGHPLFPLLALVFNKCELATCTPREPGVAGGDVCSSDSFNEDIAVFAKQVRAEKPLFSSNPELDNLMIQAIQVLRFHLLELEKVHELCDNFCHRYISCLKGKMPIDLVIDERDGSSKSDHEELSGSSTNLADHNPSSWRDHDDATSTHSAGTPGPSSGGHASQSGDNSSEQGDGLDNSVASPGTGDDDDPDKDKKRQKKRGIFPKVATNIMRAWLFQHLTHPYPSEEQKKQLAQDTGLTILQVNNWFINARRRIVQPMIDQSNRAVSQGAAYSPEGQPMGSFVLDGQQHMGIRPAGLQSMPGDYVSQGGPMGMSMAQPSYTPPQMTPHPTQLRHGPPMHSYLPSHPHHPAMMMHGGPPTHPGMTMSAQSPTMLNSVDPNVGGQVMDIHAQ [E94N]
MAQRYDELPHYGGMDGVGVPASMYGDPHAPRPIPPVHHLNHGPPLHATQHYGAHAPHPNVMPASMGSAVNDALKRDKDAIYGHPLFPLLALVFENCELATCTPREPGVAGGDVCSSDSFNEDIAVFAKQVRAEKPLFSSNPELDNLMIQAIQVLRFHLLELEKVHELCDNFCHRYISCLKGKMPIDLVIDERDGSSKSDHEELSGSSTNLADHNPSSWRDHDDATSTHSAGTPGPSSGGHASQSGDNSSEQGDGLDNSVASPGTGDDDDPDKDKKRQKKRGIFPKVATNIMRAWLFQHLTHPYPSEEQKKQLAQDTGLTILQVNNWFINARRRIVQPMIDQSNRAVSQGAAYSPEGQPMGSFVLDGQQHMGIRPAGLQSMPGDYVSQGGPMGMSMAQPSYTPPQMTPHPTQLRHGPPMHSYLPSHPHHPAMMMHGGPPTHPGMTMSAQSPTMLNSVDPNVGGQVMDIHAQ [K95N]
MAQRYDELPHYGGMDGVGVPASMYGDPHAPRPIPPVHHLNHGPPLHATQHYGAHAPHPNVMPASMGSAVNDALKRDKDAIYGHPLFPLLALVFEKGELATCTPREPGVAGGDVCSSDSFNEDIAVFAKQVRAEKPLFSSNPELDNLMIQAIQVLRFHLLELEKVHELCDNFCHRYISCLKGKMPIDLVIDERDGSSKSDHEELSGSSTNLADHNPSSWRDHDDATSTHSAGTPGPSSGGHASQSGDNSSEQGDGLDNSVASPGTGDDDDPDKDKKRQKKRGIFPKVATNIMRAWLFQHLTHPYPSEEQKKQLAQDTGLTILQVNNWFINARRRIVQPMIDQSNRAVSQGAAYSPEGQPMGSFVLDGQQHMGIRPAGLQSMPGDYVSQGGPMGMSMAQPSYTPPQMTPHPTQLRHGPPMHSYLPSHPHHPAMMMHGGPPTHPGMTMSAQSPTMLNSVDPNVGGQVMDIHAQ [C96G]

Variants of: B1
Settings: with pbx1_human PBX1, P40424
Remark: another data set of the same source

Effect of a mutation on the interaction, decreasing interaction:
MAQRYDELPHYGGMDGVGVPASMYGDPHAPRPIPPVHHLNHGPPLHATQHYGAHAPHPNVMPASMGSAVNDALKRDKDAIYGHPLFPLLALVFEKCELATCTPREPGVAGGDVCSSDSFNEDIAVFAKQVRAEKPLFSSNPELDNLMIQAIQVARFHLLELEKVHELCDNFCHRYISCLKGKMPIDLVIDERDGSSKSDHEELSGSSTNLADHNPSSWRDHDDATSTHSAGTPGPSSGGHASQSGDNSSEQGDGLDNSVASPGTGDDDDPDKDKKRQKKRGIFPKVATNIMRAWLFQHLTHPYPSEEQKKQLAQDTGLTILQVNNWFINARRRIVQPMIDQSNRAVSQGAAYSPEGQPMGSFVLDGQQHMGIRPAGLQSMPGDYVSQGGPMGMSMAQPSYTPPQMTPHPTQLRHGPPMHSYLPSHPHHPAMMMHGGPPTHPGMTMSAQSPTMLNSVDPNVGGQVMDIHAQ [L154A]
MAQRYDELPHYGGMDGVGVPASMYGDPHAPRPIPPVHHLNHGPPLHATQHYGAHAPHPNVMPASMGSAVNDALKRDKDAIYGHPLFPLLALVFEKCELATCTPREPGVAGGDVCSSDSFNEDIAVFAKQVRAEKPLFSSNPELDNLMIQAAQVLRFHLLELEKVHELCDNFCHRYISCLKGKMPIDLVIDERDGSSKSDHEELSGSSTNLADHNPSSWRDHDDATSTHSAGTPGPSSGGHASQSGDNSSEQGDGLDNSVASPGTGDDDDPDKDKKRQKKRGIFPKVATNIMRAWLFQHLTHPYPSEEQKKQLAQDTGLTILQVNNWFINARRRIVQPMIDQSNRAVSQGAAYSPEGQPMGSFVLDGQQHMGIRPAGLQSMPGDYVSQGGPMGMSMAQPSYTPPQMTPHPTQLRHGPPMHSYLPSHPHHPAMMMHGGPPTHPGMTMSAQSPTMLNSVDPNVGGQVMDIHAQ [I151A]
